This note sets out measurements from patent US20170088600A1 (published 2017).

Changes are numbered by the printed parent chain. In names and notes the source's numbering stands.

Assay [1] has as its target T1, TRAIL (TNFSF10) ectodomain (UniProt P50591 39-281, limits assumed).
T1 construct: extracellular domain; also called endogenous TRAIL; TRAIL ectodomain
The assay can be described thus: SPR, mutant TRAIL-R2-Fc captured, TRAIL as analyte. On the technique in general: SPR reads the build-up and loss of mass on a sensor chip optically.

Assay [2] has as its target T2, mouse TRAIL expressed on transiently transfected 293T cells (mouse, UniProt P50592 1-291).
T2 construct: whole, on cells; also called mTRAIL; mouse (m) TRAIL
T2 sequence (looked up): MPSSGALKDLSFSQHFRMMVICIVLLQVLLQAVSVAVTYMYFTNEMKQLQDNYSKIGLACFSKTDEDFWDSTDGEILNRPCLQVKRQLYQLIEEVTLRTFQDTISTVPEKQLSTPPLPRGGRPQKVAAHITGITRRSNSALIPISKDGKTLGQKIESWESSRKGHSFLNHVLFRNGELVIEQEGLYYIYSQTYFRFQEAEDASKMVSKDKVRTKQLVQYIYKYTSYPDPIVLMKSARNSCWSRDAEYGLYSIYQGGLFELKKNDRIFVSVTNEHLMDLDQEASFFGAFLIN
The experiment in a line: flow cytometry on 293T cells transfected with mouse TRAIL. (In general: Flow cytometry measures light scatter and fluorescence of single cells or particles in a stream.)

T1 sequence (P50591 39-281 limits assumed): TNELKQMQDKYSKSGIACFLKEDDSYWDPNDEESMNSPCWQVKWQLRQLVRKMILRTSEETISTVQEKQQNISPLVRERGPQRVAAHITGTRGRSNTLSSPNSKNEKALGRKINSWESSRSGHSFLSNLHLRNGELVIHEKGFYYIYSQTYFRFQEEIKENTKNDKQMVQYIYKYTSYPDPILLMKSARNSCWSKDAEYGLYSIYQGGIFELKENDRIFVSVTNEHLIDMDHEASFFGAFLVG

B1: TRAIL-R2-Fc K155A (Fc fusion, human, not shown: a dimerising Fc or GST)
chain: QQDLAPQQRAAPQQKRSSPSEGLCPPGHHISEDGRDCISCKYGQDYSTHWNDLLFCLRCTRCDSGEVELSPCTTTRNTVCQCEEGTFREEDSPEMCRACRTGCPRGMVKVGDCTPWSDIECVHKESGLVPRGS
notes: range 58-184
For orientation: Kd means the constant that tells how readily two partners part at equilibrium. The koff is the first-order rate constant of dissociation. Read a high koff as a short-lived complex. What is called kon is a measure of how fast the partners come together. Read a low kon as slow association. On to B1, for which, in assay [1], binding was put at a Kd of 39.7 nM, the off-rate (koff) came to 0.000138 s⁻¹ and the kon was 3480 M⁻¹ s⁻¹.

B2: TRAIL-R2-Fc L110A/L114A (Fc fusion, human, not shown: a dimerising Fc or GST)
chain: B1 chain with L53A, L57A, A98K
notes: range 58-184; also called L110/L114
With B2, the binding result in assay [1] is “no binding”.

B3: TRAIL-R2-Fc E151A (Fc fusion, human, not shown: a dimerising Fc or GST)
chain: B1 chain with E94A, A98K
notes: range 58-184
Turning to B3, the binding result in assay [1] is given as “no binding (tested: up to 1 µM ligand)”.

B4: TRAIL-R2-Fc Y103A/N134A (Fc fusion, human, not shown: a dimerising Fc or GST)
chain: B1 chain with Y46A, N77A, A98K
notes: range 58-184; also called Y103/N134
As to B4, the binding result in assay [1] was “no binding”.

B5: TRAIL-R2-Fc M152A (Fc fusion, human, not shown: a dimerising Fc or GST)
chain: B1 chain with M95A, A98K
notes: range 58-184
In assay [1], B5 yielded a Kd of 202 nM, a koff of 0.000678 s⁻¹ and a kon of 3350 M⁻¹ s⁻¹.

B6: TRAIL-R2-Fc P150A (Fc fusion, human, not shown: a dimerising Fc or GST)
chain: B1 chain with P93A, A98K
notes: range 58-184
In assay [1], B6 displayed a Kd of 4.29 nM, a koff of 9.02e-06 s⁻¹ and a kon of 2100 M⁻¹ s⁻¹.

B7: TRAIL-R2-Fc M152A/R154A/K155A (Fc fusion, human, not shown: a dimerising Fc or GST)
chain: B1 chain with M95A, R97A
notes: range 58-184; also called M152/R154/K155
Take B7: in assay [1], the binding result is listed as “no binding”.

B8: TRAIL-R2-Fc D148A (Fc fusion, human, not shown: a dimerising Fc or GST)
chain: B1 chain with D91A, A98K
notes: range 58-184
In assay [1], B8 had a Kd of 4.48 nM, a koff of 3.58e-05 s⁻¹ and a kon of 8000 M⁻¹ s⁻¹.

B9: TRAIL-R2-Fc F112A (Fc fusion, human, not shown: a dimerising Fc or GST)
chain: B1 chain with F55A, A98K
notes: range 58-184
In assay [1], B9 showed a Kd of 3.94 nM, a koff of 9.86e-06 s⁻¹ and a kon of 2500 M⁻¹ s⁻¹.

B10: TRAIL-R2-Fc Y103A/R133A (Fc fusion, human, not shown: a dimerising Fc or GST)
chain: B1 chain with Y46A, R76A, A98K
notes: range 58-184; also called Y103/R133
Consider B10, for which the binding result in assay [1] was “no binding”.

B11: TRAIL-R2-Fc V167A (Fc fusion, human, not shown: a dimerising Fc or GST)
chain: B1 chain with A98K, V110A
notes: range 58-184
In assay [1], B11 came in with a Kd of 4.35 nM, a koff of 9.57e-06 s⁻¹ and a kon of 2200 M⁻¹ s⁻¹.

B12: mouse TRAIL-R2:Fc (extracellular domain of mouse TRAIL-R2 fused to human IgG constant domain) (Fc fusion, UniProt Q9QZM4 53-180, looked up)
chain: NPAHNRPAGLQRPEESPSRGPCLAGQYLSEGNCKPCREGIDYTSHSNHSLDSCILCTVCKEDKVVETRCNITTNTVCRCKPGTFEDKDSPEICQSCSNCTDGEEELTSCTPRENRKCVSKTAWASWHK
notes: extracellular domain; also called mTRAIL-R2:Fc; not shown: printed only as the human IgG VH constant domain; subclass, limits and linker no
As for B12, the binding result in assay [2] is given as “binds”.
